Results: patent US20150110787A1 (SAMSUNG ELECTRONICS, published 2015)

What was measured:
[1] = biological target: T1, human VEGF-C polypeptide (R&D Systems; Accession # P49767) (human, UniProt P49767 103-227, limits assumed); assay: ELISA on coated human VEGF-C (1 ug/ml), anti-HA-HRP detection; 50% binding concentration, given as Kd
T1 construct: Bought protein; also called hVEGF-C; Recombinant VEGF-C protein (R&D Systems)
T1 sequence (looked up): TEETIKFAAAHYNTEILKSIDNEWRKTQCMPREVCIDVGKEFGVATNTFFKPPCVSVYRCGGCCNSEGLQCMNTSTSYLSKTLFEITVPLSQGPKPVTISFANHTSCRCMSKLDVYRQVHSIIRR
Description: ELISA for verifying the binding affinity of the anti-VEGF-C antibody in scFv form purified in Example 2 to its antigen was carried out. MaxiSorp™ flat-bottom plate (Nunc) of 96-wells was coated with 1 μg/ml of human VEGF-C(R&D Systems) for 16 hours. The plate was then washed 5 times with phosphate buffer saline (PBS) supplemented with 0.05%(v/v) Tween-20, and then blocked with PBS supplemented with 1%(v/v) bovine serum albumin (BSA; Sigma) at room temperature for 2 hours. The anti-VEGF-C antibody in scFv form purified in Example 2 was added to each well of the plate and was incubated at room temperature for 2 hours.
The plate was washed 5 times with PBS supplemented with 0.05% (v/v) Tween-20. HRP-conjugated anti-HA antibody (HA-probe Antibody (F-7) HRP conjugated) (Santacruz) diluted with PBS supplemented with 1%(v/v) BSA was added at the dilution ratio of 1:1,000 (v/v) and was incubated at room temperature for 1 hour. The reacted well was washed 5 times with PBS supplemented with 0.1%(v/v) Tween-20. Finally, tetramethylbenzidine (TMB) substrate (Cell Signal) was added to each well of the plate at the amount of 100 μl to induce coloring reaction at room temperature for 3 minutes. Then, the reaction was stopped with 50 μl of 5N H₂SO₄ solution, and OD450 value was measured on plate reader (Molecular Devices).

[2] = biological target: T1, human VEGF-C polypeptide (R&D Systems; …); assay: SPR, BIAcore T100; antibody captured on anti-human Fc antibody on a CM5 chip, recombinant VEGF-C flowed from 200 nM
Description: To accurately measure the affinity of the anti-VEGF-C antibody to its antigen, VEGF-C, Surface Plasmon Resonance (SPR) method was conducted using BIAcore T100 (GE Healthcare). The SPR method is based on a principle that the refractive index of light passing through a sensor chip varied depending on the condition of the substance coated on the sensor chip. If an antibody or an antigen is flowed on the chip which is coated with an antigen or an antibody, the binding between the antigen and the antibody leads to change in refractive index, and Kd value can be calculated based on the refractive index.
25 μg/ml of anti-human Fc antibody (Sigma) was fixed on CM5 sensor chip (GE Healthcare) using pH 5.0 sodium acetate solution and amine coupling kit (GE Healthcare). 2 μg/ml of the anti-VEGF-C antibody obtained in Example 2 was added on the chip to be captured.
Recombinant VEGF-C protein (R&D Systems) was serially diluted with HBS-P (GE-Health) solution starting from the concentration of 200 nM and flowed on the chip, leading to binding (on) to and dissociating (off) from the antibody, thereby measuring the antigen-antibody affinity.

[3] = biological target: T2, FLAG-tagged human VEGF-C (Accession # P49767) (human, UniProt P49767 112-227, limits assumed); assay: competitive ELISA: human VEGR-R3-Fc coated, 200 ng/ml FLAG-tagged human VEGF-C plus scFv (1-1000 nM), anti-FLAG-HRP; competitor VEGR-R3-Fc
T2 construct: not shown: FLAG tag
T2 sequence (looked up): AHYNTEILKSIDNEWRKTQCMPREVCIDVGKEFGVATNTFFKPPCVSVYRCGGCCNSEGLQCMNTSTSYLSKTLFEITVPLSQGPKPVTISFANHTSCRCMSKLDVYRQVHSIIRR
Description: To examine the effect of the anti-VEGF-C antibody purified in Example 2 on the inhibition of VEGF-C:VEGR-R3 binding, a competitive ELISA, which is used for verification of molecular interaction, was performed. MaxiSorp™ flat-bottom plate (Nunc) of 96-wells was coated with […] of human VEGR-R3-Fc (R&D Systems. Accession No. P35916) which is a fusion protein composed of human VEGR-R3 and Fc of human IgG1. Thereafter, the plate was washed 5 times with phosphate buffer saline (PBS) supplemented with 0.05%(v/v) Tween-20, and then blocked with PBS supplemented with 1%(v/v) bovine serum albumin (BSA; Sigma) at room temperature for 2 hours.
To perform the VEGF-C:VEGR-R3 neutralization ELISA, the anti-VEGF-C antibody (concentration: 1 nM, 10 nM, 100 nM, or 1000 nM) purified in Example 2 was added to each well coated with the human VEGR-R3-Fc, together with a mixture of 1%(v/v) BSA and 200 ng/ml of FLAG-tagged human VEGF-C (Accession # P49767), and incubated at room temperature for 2 hours. Thereafter, the plate was washed 5 times with PBS supplemented with 0.05% (v/v) Tween-20. […] Then, the reaction was stopped by addition of 50 μl of 5N H₂SO₄ solution, and OD450 value was measured using plate reader (Molecular Devices).

[4] = biological target: T2, FLAG-tagged human VEGF-C (Accession # …); assay: competitive ELISA: human VEGR-R3-Fc coated, 200 ng/ml FLAG-tagged human VEGF-C plus IgG (1-1000 nM), anti-FLAG-HRP; competitor VEGR-R3-Fc
Description: MaxiSorp™ flat-bottom plate (Nunc) of 96-wells was coated with […] of human VEGR-R3-Fc (R&D Systems. Accession No. P35916) which is a protein produced by coupling human VEGR-R3 with Fc of human IgG1. Thereafter, the plate was washed 5 times with phosphate buffer saline (PBS) supplemented with 0.05%(v/v) Tween-20, and then blocked with PBS supplemented with 1%(v/v) bovine serum albumin (BSA; Sigma) at room temperature for 2 hours.
For performing the VEGF-R3:VEGF-C neutralization ELISA, the anti-VEGF-C antibody (concentration: 1 nM, 10 nM, 100 nM, or 1000 nM) in IgG form purified in Example 6 was added to each well of the human VEGR-R3-Fc coated plate, together with a mixture of 1%(v/v) BSA and 200 ng/ml of FLAG-tagged human VEGF-C (Accession # P49767), and then, the plate was reacted at room temperature for 2 hours. Thereafter, the plate was washed 5 times with PBS supplemented with 0.05% (v/v) Tween-20. HRP-conjugated anti-FLAG antibody (SIGMA) was diluted with PBS supplemented with 1%(v/v) BSA at the dilution ratio of 1:5,000 (v/v), and added to each well in the amount of 100 μl, to react at room temperature for 1 hour. The reacted well was washed 5 times with PBS supplemented with 0.1%(v/v) Tween-20. […] Then, the reaction was stopped with 50 μl of 5N H₂SO₄ solution, and OD450 value was measured on plate reader (Molecular Devices).

B1: SAIT-VEGFC-AB-4A2, anti-VEGF-C antibody in scFv form purified in Example 2 (scFv, V domains shown)
VH: EVQLLESGGGLVQPGGSLRLSCAASGFTFSSYDMSWVRQAPGKGLEWVSAISYDNGSTYYADSVKGRFTISRDNSKNTLYLQMNSLRAEDTAVYYCARDPYLARLNTFDYWGQGTLVTVSS
VL: QSVLTQPPSASGTPGQRVTISCSGSSSNIGSNNVSWYQQLPGTAPKLLIYYNSHRPSGVPDRFSGSKSGTSASLAISGLRSEDEADYYCATWDSSLNGYVFGGGTKLTVL
notes: Expressed in the E. coli periplasm and partially purified on Ni-NTA; also called anti-VEGF-C scFv antibody
- Kd [1]: 0.0262 µM
- Kd [2]: 0.000345 µM
- koff [2]: 0.00258 s⁻¹
- kon [2]: 7.45e+06 M⁻¹ s⁻¹
- IC50 [3]: 0.0334 µM

B2: SAIT-VEGFC-AB-4A2, anti-VEGF-C antibody in IgG form purified in Example 6 (antibody, V domains shown)
VH: EVQLLESGGGLVQPGGSLRLSCAASGFTFSSYDMSWVRQAPGKGLEWVSAISYDNGSTYYADSVKGRFTISRDNSKNTLYLQMNSLRAEDTAVYYCARDPYLARLNTFDYWGQGTLVTVSS
VL: QSVLTQPPSASGTPGQRVTISCSGSSSNIGSNNVSWYQQLPGTAPKLLIYYNSHRPSGVPDRFSGSKSGTSASLAISGLRSEDEADYYCATWDSSLNGYVFGGGTKLT
notes: VH was cloned into pOPTI-VAC, which carries the human IgG1 constant region and Fc; Expressed in 293-F cells and purified on Protein A
- IC50 [4]: 0.0092 µM
